# Assay results: the Human Domainome abundance scans (Beltran et al. 2025)
# ± gives the uncertainty stated by the source.
# B1: COUP transcription factor 1, residues 83 to 159; numbered along this chain, P10589 (parent)
# chain: HIECVVCGDKSSGKHYGQFTCEGCKSFFKRSVRRNLTYTCRANRNCPIDQHHRNQCQYCRLKKCLKVGMRREAVQRG
# Variants of: B1
# Experiment: abundance fitness (aPCA) (normalised: wild type 0, dead -1); higher = more abundant; growth selection in yeast, the domain comes from the species named
# Details: Homo sapiens
row,Variant,abundance fitness
1,V6K,-1.09 ± 0.38
2,V6P,-0.705 ± 0.19
3,K29I,-0.22 ± 0.2
4,K29S,-0.058 ± 0.051
5,K29C,-0.705 ± 0.2
6,K29N,-0.01 ± 0.18
7,K29Q,0.03 ± 0.067
8,K29F,-0.147 ± 0.21
9,R33W,0.068 ± 0.058
10,R33P,-0.771 ± 0.16
11,R33I,0.086 ± 0.16
12,C4D,-0.724 ± 0.13
13,C4V,-0.672 ± 0.078
14,C4P,-0.833 ± 0.14
15,C4W,-0.965 ± 0.28
16,C4F,-0.939 ± 0.13
17,C4M,-0.521 ± 0.12
18,G77W,-0.23 ± 0.074
19,G77V,-0.041 ± 0.043
20,G77Y,-0.257 ± 0.14
21,G77N,-0.023 ± 0.093
22,G77F,-0.317 ± 0.18
23,G77K,0.101 ± 0.14
24,G77A,0.12 ± 0.061

row,Variant,abundance fitness
1,G77H,-0.004 ± 0.13
2,R76N,0.123 ± 0.063
3,R76Q,0.083 ± 0.055
4,R76E,0.11 ± 0.047
5,R41I,0.135 ± 0.13
6,R41S,0.176 ± 0.057
7,R41L,0.228 ± 0.054
8,R60M,0.283 ± 0.038
9,T37L,-0.057 ± 0.052
10,T37E,0.178 ± 0.069
11,T37N,0.081 ± 0.057
12,T37K,0.139 ± 0.054
13,T37W,0.138 ± 0.064
14,C24I,-0.509 ± 0.28
15,C24N,-0.702 ± 0.35
16,C24E,-1.1 ± 0.17
17,C24L,-0.841 ± 0.11
18,C24M,-1.08 ± 0.26
19,N54R,-0.353 ± 0.045
20,N54I,0.092 ± 0.094
21,K25P,-0.492 ± 0.14
22,G8H,-0.22 ± 0.18
23,G8R,0.014 ± 0.058
24,E3C,-0.072 ± 0.083

row,Variant,abundance fitness
1,E3I,-0.108 ± 0.12
2,E3R,-0.408 ± 0.049
3,E3W,-0.319 ± 0.066
4,C40E,-0.683 ± 0.093
5,C40T,-0.503 ± 0.12
6,C40A,-0.885 ± 0.094
7,C40Q,-0.848 ± 0.17
8,C40R,-0.864 ± 0.081
9,Q57H,0.054 ± 0.12
10,Q57T,-0.088 ± 0.1
11,Q57A,-0.035 ± 0.058
12,V74Y,-0.353 ± 0.079
13,V74N,-0.061 ± 0.065
14,V74F,-0.175 ± 0.06
15,V74G,-0.102 ± 0.034
16,V74Q,-0.063 ± 0.048
17,V74K,-0.264 ± 0.059
18,V74A,0.028 ± 0.041
19,Y38F,-0.089 ± 0.15
20,Y38C,-0.745 ± 0.25
21,Y38I,-0.24 ± 0.29
22,M69P,-0.661 ± 0.097
23,M69C,-0.38 ± 0.11
24,M69E,-0.723 ± 0.083

row,Variant,abundance fitness
1,M69W,-0.629 ± 0.057
2,S11Q,0.01 ± 0.085
3,S11G,-0.071 ± 0.033
4,S11L,-0.281 ± 0.068
5,S11M,-0.101 ± 0.099
6,S11Y,0.177 ± 0.15
7,S11V,-0.399 ± 0.053
8,R53D,0.055 ± 0.093
9,R53W,-0.288 ± 0.11
10,R53N,-0.044 ± 0.16
11,R53H,-0.231 ± 0.17
12,E72G,-0.258 ± 0.038
13,E72L,-0.317 ± 0.044
14,E72T,-0.283 ± 0.056
15,E72I,-0.325 ± 0.085
16,E72D,-0.002 ± 0.06
17,Q75C,-0.07 ± 0.055
18,Q75N,-0.115 ± 0.083
19,Q75D,0.211 ± 0.054
20,Q75G,0.084 ± 0.032
21,Q75R,-0.159 ± 0.034
22,Q75A,0.125 ± 0.036
23,Q75F,-0.026 ± 0.07
24,Q75S,-0.023 ± 0.04

row,Variant,abundance fitness
1,S12N,0.003 ± 0.065
2,S12P,-0.094 ± 0.059
3,C7S,-0.803 ± 0.11
4,C7P,-1.17 ± 0.3
5,C7T,-0.95 ± 0.25
6,C7K,-0.509 ± 0.12
7,C7V,-0.597 ± 0.071
8,R44N,0.11 ± 0.075
9,R44S,-0.024 ± 0.043
10,R44E,0.082 ± 0.041
11,R44D,0.084 ± 0.06
12,C46S,-0.604 ± 0.12
13,C46E,-0.229 ± 0.074
14,C46F,-0.501 ± 0.38
15,C46L,-0.492 ± 0.078
16,L61H,-0.668 ± 0.12
17,L61C,-0.649 ± 0.089
18,L61F,-0.062 ± 0.058
19,L61Y,-0.152 ± 0.068
20,L61A,-0.72 ± 0.07
21,L61R,-0.84 ± 0.062
22,L61V,-0.555 ± 0.05
23,L61E,-0.38 ± 0.053
24,A42K,0.002 ± 0.085

row,Variant,abundance fitness
1,A42Y,0.109 ± 0.22
2,A42F,-0.282 ± 0.3
3,A42G,0.217 ± 0.048
4,S31Y,-0.169 ± 0.2
5,S31H,-0.176 ± 0.12
6,S31T,-0.027 ± 0.1
7,S31I,0.014 ± 0.42
8,S31Q,0.053 ± 0.087
9,S31C,0.075 ± 0.073
10,S31E,-0.336 ± 0.091
11,N35V,-0.104 ± 0.072
12,N35W,-0.38 ± 0.16
13,N35R,-0.196 ± 0.087
14,N35L,-0.513 ± 0.14
15,L36V,0.007 ± 0.05
16,L36E,0.162 ± 0.07
17,N43D,0.278 ± 0.099
18,N43R,0.012 ± 0.051
19,C21T,-0.742 ± 0.16
20,C21S,-0.757 ± 0.13
21,C21A,-0.707 ± 0.098
22,C21H,-0.775 ± 0.36
23,C21R,-0.845 ± 0.095
24,C21L,-0.9 ± 0.15

row,Variant,abundance fitness
1,F28Q,-0.809 ± 0.36
2,F28C,-0.757 ± 0.21
3,F28V,-0.807 ± 0.098
4,A73K,-0.183 ± 0.056
5,A73H,0.038 ± 0.064
6,A73S,-0.02 ± 0.039
7,A73R,-0.275 ± 0.038
8,Y16V,-0.151 ± 0.062
9,I2K,-0.329 ± 0.22
10,I2N,0.05 ± 0.1
11,I2D,0.065 ± 0.27
12,I2E,-0.379 ± 0.18
13,I2G,-0.927 ± 0.17
14,I2A,-0.829 ± 0.29
15,I2Y,0.237 ± 0.32
16,S26D,-0.32 ± 0.35
17,S26G,0.238 ± 0.056
18,S26M,0.298 ± 0.27
19,K63L,-0.337 ± 0.049
20,K63M,-0.048 ± 0.047
21,K63W,-0.391 ± 0.053
22,K63Y,-0.277 ± 0.097
23,K63C,-0.17 ± 0.063
